Among the data in a protein production outcome set (Wang et al. 2014) are protein production values, retold here.

A short description of this series: label from the status in PepcDB records.
Take “MDEGMQIVGAVSGLSTPFNQNVSLECYNGILSMLLNGAPLADILHALVLKIEDQRLGTHASVLLLSEDGKRVLTGAAPHLPDSYNQVIHGVEIGPEVGSCGTAAYTGQRVIVEDIEHHPYWALYKSFALVHGLRACWSEPIKDTQGKVLGTFAMYYKEIKSPTVADLTLIAEAARLASLAIERSRSLEFQRLAVKIFDRLPLALVITNASHSVLYANDAFKLMVCLQPDDILAFNPEQFFSPSEPHEIASLFNHLSEGKMWQGELVGLRNNGETFYLDLTVTVFRESHSADLGFAWLFSDVSERKKAAQLIKYQANNDSLTGLANRNALFRQIQELINADSLTPGFSFMLMDLDNFKQVNDTYGHDKGDVLLVQMVEQVKICLDPQAVFARLGGDEFAILLPGVVTQRELSQLADKINKQVYRRYELSHDKGVYSSVSIGIARFPEDALDLEQLLNCADQAMYISKANGRNRYHFFTEQMQQNAERIANLHTLLKQALEQNAFELYFQPIVDATTGLIVRAEVLLRWQHEGQFISPDEFIPIAENSGLIVSIGRCVRQAVMQTIVEMQALGWPMSLAINVSTFEFWSHELQDEFCDSFTDIIEGLGVEDFPYELITLEITESLLMKKHAHLIQVLNELRARGIKISLDDFGTGYSSLSYLANFPIDQIKIDKSFIDRLAEGERHLALIEAIVRLSHALNLRVTAEGVETQEQLQVMMDNHIQEIQGYLFYKPIPKAVFFELLAKQAVISPHSLEHHHHHH”: the protein production result is “failed”.

Regarding “MDELHPGYLVGLLVLLVACSAFFSCVETALLNLDRYRLRLQAKQGLRGARRSSWLLLHDDRLRGTLLFGRTLVNVSAAALASWAALRHWGVIGLAVAIPGMTLLLLLFGALLPRRYGALRSERVALPLSLPLLILQRLCWPLLWLLTLLSNALLRLLGVAAAEQDDSGRSRDEEALHPADNPQASEVNRHDMLLGLLDLEKVTVNDLMIPRNEIEGIDLDDELEVIVEQLRTTSHTRLPVYRDDVNQIEGVVHMRQIARLLTQGRLTKENLRQACMEPYFVPESTPLSTQLVNFQKEKRRIGVVVDEYGEVIGIVTLEDILEEIVGDFNDLDSLDNPDIQAQEDGSFVIDGSANLRELNKSLGWQLPCDGPKTLNGLVTEALEQIPDCAVCLRIGPYCLEIQQSAENRVKSVRAWHPRALTPLVESDASV”, the protein production result is on record as “failed”.

On to “MDELRFAAVGLNHNHIYGQVNCLLRAGARLAGFHEKDDALAAEFSAVYADARRIATAEEILEDENIGLIVSAAVSSERAELAIRAMQHGKDVLVDKPGMTSFDQLAKLRRVQAETGRIFSILYSEHFESPATVKAGELVAAGAIGEVVHIVGLGPHRLRRETRPDWFFRRADYGGILTDIASHQCEQFLFFTGVNDATVLSASVGNQSVPDAPELQDTGSIHLSTGRTTGMIHVNWLTPEGMPTWGDGRLFIVGTSGTIEVRKTVDLAGREGGNHLFLADRNGVEHIDCSRVDLPFGRQFLADIRDRTETAMPQERCFKAMELALQAQAIAEQNGDRN”, for which the protein production result is on record as “not failed”.

On to “MDEPVRTFPITWLADYVMEDEGFSSREDINDLLMKEGFPLEPDLFMLTEIARKGIIEVTSSRDYSPEYALFLNLTFRDGSALNSRKVKVAWSEVCSPKQEGGLGLRSIAEANKVCVLKLIWRILSARRSLWVELVKKYLIRRGSFWLVKENTTCGSWIWKKILKYRDTAKSFYRVEVRNGEASSFGFDRWSEMGCLYDRLGARGCIDLGSPMTATVGEVMAGARRRKYRVAILNQVENEIVKQKLIRSNETDVALWNGKHDHYRKEFHTKETWLQIRTAKLLMENYNGIWFKHSTPKYSLITWLVQKNRVATGDKLIKWNPQVTPNCILCQHTLETWDHLFFMCPYSFQVWTKLAKGILHASFTANWTETLKLIHDNRLSKTKCFIVGYIFQNAIHSL”, for which the protein production entry was “failed”.

As to “MDESAALRAFQDALRTQRPEFGQFFLARLLGLDISYPDGQCLIVFEPQDFLFNPQGSLHGGIIATVMDISMGHLLNHVQGAGLTLEMKTQYLKAVRQGTVYCRGEFLQRGRSVSFLKSTLTDAQGEPLAMATSTWKALSPARAPGVDAAAR”, the protein production entry is “failed”.

With “MDFAYSPKVQELRERVSAFMEAHVYPAEAVFERQVAEGDRWQPTAIMEELKAKAKAEGLWNLFLPESEYGAGLANHEYAPLAEIMGRSLIGPEPFNCAAPDTGNMEVLVRYGSEEQKRTWLEPLLSGEIRSAFAMTEPGVASSDATNMEARAERQGDDWVINGRKWWTSGACDPRCKILIFMGLTNPDAPRHQQHSMILVPVDTPGVKILRPLPVFGYDDAPHGHAEVLFENVRVPYENVILGEGRGFEIAQGRLGPGRIHHCMRSIGMAERALELMCKRAVSRTAFGKPLARLGGNIDHIADSRMEINMARLLTLQAAYMMDTVGNKIAQSEIAQIKVVAPNVALKVIDRAIQMHGGAGVSNDFPLAYWYAMQRTLRLADGPDEVHRAAIGKFELGKYVPREML”, the protein production entry is listed as “failed”.

“MDFGKPNQVTVNYLDENKTPIAPSLYLSGLFNEAYNVPMKKIKGYTLLKYDSEILGVFTESPQTINIIYQKKAPEQALEHHHHHH”: the protein production entry is “failed”.

For the sequence “MDFGSFLKAPEIKVKIVTYRDIFQDKAMIENRFGEEYRDRSAVIKMDSADLKQLNVKKGETVILKNSFGTVVVKAEESGYEPSHRGIAYMPKSPWSNMLVSDETGGTGIPKFKDISVTVTSAKGQKLTELGL”, the protein production result is on record as “not failed”.

In the case of “MDFVEFWSQLIRNVRWRRACVLALIVLTLYLASSMMSIILLTFIFTFLVTRLVRAVRRWVKIPPTIIVLVVYALVILGIYFAVSIYLPQLIKQTFLTFESVYRFYQNPSHDTNQVLTWVTSYFQESDILKQLKGGISVVFQYITNIGNMGLTFFLSFILSFFFTIEDHQMRVFTKRFLTSTFGWFFQDVHFFAKKFVNSFGVVLEAQFLIAIVNTVITVTFMAILKMPQLISLGLMIFILSLIPVAGVIISVVPLSLIAYSVGGLRYVVYMLLMILVVHALEAYVLNPKFMSSRTELPIFYTFVVLLVSERLFGVWGLIVGVPIFNFILDIIGVKPVHRPRPNINLKKTITFHPDSENKR”, the protein production entry was “failed”.

In the case of “MDFVIRRATAEEYDTLGEITAQAYLRDGLLDFGESDSYLDELRDVAKRAAAAEVLVAVADDAVLGGATFVPSGGPMADIARPGEAEIRMLAVAREARGRGAGEALVRACADRARAVPGCTGVVLSTQAAMRTAHRLYERLGFVRTPDRDWNPLPELDDIMLLTYELTL”, the protein production entry is given as “failed”.

With “MDGEAFEISLLDGEEDRFGGTVVNLMEVESMTIGDFDSKLDVSLKAWKDQGKKGIWIKLPSELSSLVDTAIKKGFTYHHAENEYVMLTFWLPEPPSTLPCNASHRIGIGAFVLNKNGEMLVVQENSGYFKDKNVWKVPTGTIKEGESIWAGAVREVKEETDIDAEFVEVLSFMESHQAVWQRKTDIFFVCELEARTFEIQKQDSEIHAAKWMPVEEYVNQPYHNKEGNEMFKLIANICLKRSREKYTGFVLTTNSAKKSLYCSVDHANLLKETADQASTSLSD”, the protein production result was “failed”.

In the case of “MDGIFAGIICNQANRCLTWTSQQLFSEKISGAEGTKLDDEFLDMERKIDVTNKVVAEILSKTTEYLQPNPAYRAKLGMLNTVSKIRGQVKTTGYPQTEGLLGDCMLKYGKELGEDSTFGNALIEVGESMKLMAEVKDSLDINVKQTFIDPLQLLQDKDLKEIGHHLKKLEGRRLDYDYKKKRVGKIPDEEVRQAVEKFEESKELAERSMFNFLENDVEQVSQLAVFIEAALDYHRQSTEILQELQSKLQMRISAASSVPRREYKPRPVKRSSSELNGVSTTSVVKTTGSNIPMDQPCCRGLYDFEPENQGELGFKEGDIITLTNQIDENWYEGMIHGESGFFPINYVEVIVPLPQ”, the protein production result is “not failed”.

Regarding “MDGKRVWLSDDELTRFIEQAETPHQRLAFLLAGRVGLRRSEIIEVCPQDLVDGPTGDHIRVWESYAKRDKYREPPVPQEVVTIAETLAYQQDDDEPLLDVAGSTVYRWVRRAADELEEETGDRGWQYLDVHDLRRTWGTYLLEQGVIPSVVMSFGGWEDWDTFRKHYLGLEHHHHHH”, the protein production result is recorded as “failed”.

Take “MDGLFEFCQLSTGGSVAGAVKLNRQQTDMAVNWAGGLHHAKKYEASGFCYVNDIVLAILELLKYHQRVLYIDIDIHHGDGVEEAFYTTDRVMTVSFHKYGEYFPGTGDLRDIGAGKGKYYAVNFPMCDGIDDESYGQIFKPIISKVMEMYQPSAVVLQCGADSLSGDRLGCFNLTVKGHAKCVEVVKTFNLPLLMLGGGGYTIRNVARCWTYETAVALDCEIPNELPYNDYFEYFGPDFKLHISPSNMTNQNTPEYMEKIKQRLFENLRMLPHAPGVQMQAIPEDAVHEDSGDEDGEDPDKRISIRASDKRIACDLEHHHHHH”: the protein production result is recorded as “not failed”.

“MDGSPARPVPLVPDAAPAAPGRGRLAALTLLTLGFFAANSLLARAALRPGLADPATFTAIRLASGAAALGGLALASRRARPRGGSAGSALALFAYAAAFSLAYRRIDAGPGAFLLFFAVQASMIGWSVLRGARPTRRQWAGLAVALAGLGWLTLPGAHAPDARGAALMLAAGVAWGAYTLRGRGVRDPAGATAANFALAVPLALCLVIASAGTLHLTARGAALAAASGAVASGVGYVLWYTVVPALGAARAAAVQLAVPAMVPLAAAGLLGEAITPRLLAAGTAILAGVALAIAPAARGGAFTRALSSRAGSAVERPPR”: the protein production entry was “failed”.

As to “MDHLKHLQQLQNIERIVLSGIVLANHKIEEVHSVLEPSDFYYPPNGLFFEIALKLHEEDCPIDENFIRQKMPKDKQIKEEDLVAIFAASPIDNIEAYVEEIKNASIKRKLFGLANTIREQALESAQKSSDILGAVEREVYALLNGSTIEGFRNIKEVLESAMDLITENQRKGSLEVTGIPTGFVQLDNYTSGFNKGSLVIIGARPSMGKTSLMMNMVLSALNDDRGVAVFSLEMSAEQLALRALSDLTSINMHDLESGRLDDDQWENLAKCFDHLSQKKLFFYDKSYVRIEQIRLQLRKLKSQHKELGIAFIDYLQLMSGSKATKERHEQIAEISRELKTLARELEIPIIALVQLNRSLENRDDKRPILSDIKDSGGIEQDADIVLFLYRGYIYQMRAEDNKIDKLKKEGKIEEAQELYLKVNEERRIHKQNGSIEEAEIIVAKNRNGATGTVYTRFNAPFTRYEDMPIDSHLEEGQETKVDYDIVTT”, the protein production entry was “not failed”.

On to “MDHLLSGLATRLGQGPFVADRTGSYHLRIDGQSVLLLRQGDDLLLESPLEHAPLDPQRDQQGLLRALLSRVASWSRRYPQAIVLDADGRLLLQARLGLDGLDPERLERALAAQVGLLEALAPELEPLPRGLPPQAPVWRP”, for which the protein production result is given as “failed”.

For the sequence “MDHQLSQHDIFISQDGQLQLTVAVDTETVWLTQAEICVLFDRERSVITKHINNVFKEGELERDSVCAIFARTADDGKTYQTQYFNLDVIISVGYRVKSKRGVQFRQWATNTLKQHLLQGYTLNQQRLVQRGIEFNQALALLSKTLTNQALINPDGQAVVNVIAEYARSWSLLQGYDEQSLTEITHKQQQMQPLALDEVLAAIAALKTNLIAKGEATDLFAQLRGNGLASSIATIEQGFGGEWFYPNVASRAAHLLYFIIKNHPFADGNKRTGSFLFLWYLQQNQHLLAKPVSEQINDTTLVALALLVAESLPDQKELMIRLIEHFILLKDSELEHHHHHH”, the protein production entry is recorded as “not failed”.

As to “MDIAELINHPELLLLVLAPLFFVCILLEWYLGDRRQKLPVSARYHAKEVLCNFSLAAMHQGTDILAGLLIAKLYLAIFGWKLFDIQMGPFTFVLLMVAQDFCYYWFHRASHRIRWMWAAHVVHHSSENMNFSTAFRQSLMYPFAGMWVFWLPLVILGFDPNWVVFVVLLSLGLQFFVHTQAVRKLGPLEWLFNTPSHHRVHHGRNPQYIDKNYAGILIIWDKLFGTFVPEEETVIYGITKPVNSFNPLKVTFSEWHDMFREVTTKGLSLSKRLGILFAPPASYQKDD”, the protein production result is given as “failed”.
